Measurements from US20230083243A1 (VEGA THERAPEUTICS, published 2023).
Values belong to the binder of their own block, whether it stands above or below them.

Columns and labels:
[1] = target: T1, cynomolgus monkey Protein S (cynomolgus monkey); assay: BLI Octet; antibody on anti-human Fc probe; Protein S 7.81-500 nM; 4 mM CaCl2
T1 construct: also called cyno Protein S
Procedure: (§1) Binding characteristics of the Protein S antibodies were also further characterized using Octet. Using the Octet System (Sartorius), the binding of each antibody to both human and cynomolgus monkey (“cyno” in Table 10) Protein S was determined. The human Fc antibodies were immobilized onto anti-human Fc capture probes by placing the probes into 10 μg/ml antibody solution in 10 mg/ml bovine serum albumin, 20 mM Tris pH 7.0, 150 mM NaCl, and 4 mM calcium chloride. […] Next, the probes were placed into buffer and the dissociation rates were measured.

human Protein S [2] = target: T2, human Protein S (human, UniProt P07225 42-676); assay: as above
T2 construct: also called ProS; ProS1
T2 sequence: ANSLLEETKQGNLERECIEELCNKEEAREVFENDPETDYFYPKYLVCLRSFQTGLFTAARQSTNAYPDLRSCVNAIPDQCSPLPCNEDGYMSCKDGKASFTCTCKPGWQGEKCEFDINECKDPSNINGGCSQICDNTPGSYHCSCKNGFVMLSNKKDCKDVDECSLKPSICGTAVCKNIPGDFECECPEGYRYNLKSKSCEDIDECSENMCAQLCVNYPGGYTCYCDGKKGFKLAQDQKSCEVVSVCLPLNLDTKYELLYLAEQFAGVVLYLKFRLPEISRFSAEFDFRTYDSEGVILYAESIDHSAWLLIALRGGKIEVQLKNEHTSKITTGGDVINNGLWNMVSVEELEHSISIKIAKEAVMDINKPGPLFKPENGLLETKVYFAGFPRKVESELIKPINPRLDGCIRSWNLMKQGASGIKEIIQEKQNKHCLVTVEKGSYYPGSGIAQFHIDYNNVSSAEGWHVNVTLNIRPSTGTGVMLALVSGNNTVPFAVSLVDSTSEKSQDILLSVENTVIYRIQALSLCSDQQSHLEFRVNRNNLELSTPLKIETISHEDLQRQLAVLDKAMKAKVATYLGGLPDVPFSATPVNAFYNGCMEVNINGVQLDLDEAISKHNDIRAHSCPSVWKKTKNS
Procedure: as §1

human Protein S [3] = target: T2, human Protein S; assay: SPR Biacore X100; antibody captured by anti-human IgG (Fc); Protein S 2-128 nM; 5 mM CaCl2; 1:1 fit
Procedure: Binding characteristics of the Protein S antibodies were also determined. Binding interaction analysis was obtained by Surface Plasmon Resonance in a Biacore X100 instrument. The human anti-IgG (Fc) antibody was immobilized to the carboxymethylated dextran membrane on the sensor chip surface (CM5) via the free amine method for a contact time of 420 seconds. Human anti-IgG antibody at 25 μg/mL in 0.15 M NaCl was immobilized to 9,785 RU in 10 mM sodium acetate pH 5.0.
Dilution and running buffer were as follows: Hbs−EP+5 mM CaCl₂. Regeneration was obtained by 3 M MgCl₂. Binding constants (ka, kd, and KD) were determined using the Biacore X100 evaluation software, assuming a 1:1 interaction of Protein S and the tested monoclonal antibody under investigation.

Kd [1]: 1.55 nM
koff [1]: 0.000133 s⁻¹
kon [1]: 85800 M⁻¹ s⁻¹
Kd (human Protein S [2]): 0.514 nM
koff (human Protein S [2]): 6.7e-05 s⁻¹
kon (human Protein S [2]): 131000 M⁻¹ s⁻¹
Kd (human Protein S [3]): 6.25 nM
koff (human Protein S [3]): 0.000823 s⁻¹
kon (human Protein S [3]): 132000 M⁻¹ s⁻¹
B1: Antibody 8 (antibody, V domains shown)
VH: QVQLQESGPGLVKPSETLSLTCAVSGYSISSGYYWGWIRQPPGKGLDWIGSIYYSGSTYYNPSLKSRVTISVDTSKNQISLKLSSVTAADTAVYYCATTYSDIVTGYYNDAFDIWGQGTMVTVSS
VL: EIVMTQSPATLSVSPGERATLSCRASQRINSNLAWYQQKPGQAPRLLIYGASTRATGIPARFSGSGSGTEFTLTISSLQSEDFAAYYCQQYDNWPLTFGGGTKVEIK
notes: Same variable regions as Antibody 20

Kd [1]: 9.81 nM
koff [1]: 0.00106 s⁻¹
kon [1]: 109000 M⁻¹ s⁻¹
Kd (human Protein S [2]): 6.78 nM
koff (human Protein S [2]): 0.00106 s⁻¹
kon (human Protein S [2]): 156000 M⁻¹ s⁻¹
B2: Antibody 28 (antibody, V domains shown)
VH: QVQLQQSGTELVRPGTSVKMSCKAAGYTFTNHWIGWVKQRPGHGLEWIGDIYPGGGYTNYNEKFKGKASLTADTSSTTAYMQLSSLTSEDSAIYYCSRFGDQNWAWFAYWGQGTLVTVSA
VL: DIQMNQSPSSLSASLGDTITITCRASQNIHMWLSWYQQKPGNIPKLLIFKTSNLHTGVPSRFSGSGSGTDFTLTISSLQPEDIATYYCLQGQSYPFTFGGGTKLEIK

Kd [1]: 3.88 nM
koff [1]: 0.00104 s⁻¹
kon [1]: 268000 M⁻¹ s⁻¹
Kd (human Protein S [2]): 1.99 nM
koff (human Protein S [2]): 0.000636 s⁻¹
kon (human Protein S [2]): 320000 M⁻¹ s⁻¹
B3: Antibody 43 (antibody, V domains shown)
VH: QVQLVQSGAEVKKPGASVKVSCKASGYTFTSYYIHWVRQAPGQGLEWMGVTSPSGRSTSFAQKFQGRVTMTRDTSTSAVYMDLDSLRSEDTAVYYCARGGVTIHLERRGYFDYWGQGTLVIVSS
VL: not shown
notes: Same variable regions as Antibody 44

Kd [1]: < 0.001 nM
koff [1]: < 1e-07 s⁻¹
kon [1]: 139000 M⁻¹ s⁻¹
Kd (human Protein S [2]): < 0.001 nM
koff (human Protein S [2]): < 1e-07 s⁻¹
kon (human Protein S [2]): 169000 M⁻¹ s⁻¹
Kd (human Protein S [3]): 1.33 nM
koff (human Protein S [3]): 0.00039 s⁻¹
kon (human Protein S [3]): 290000 M⁻¹ s⁻¹
B4: Antibody 1 (antibody, V domains shown)
VH: QVQLVQSGAEVKKPGSSVKVSCKVSGGTFSSYSISWVRQAPGQGLEWMGGIIPIFGTTNYAQKFQGRVTITADESTSTAYMDLSSLKSEDTAMYYCEGGRVGADFDYWGQGTLVTVSS
VL: SSDLTQGPAVSVALGQTVRITCQGDSLRNYYASWYQQKPGQAPVPVIYGKNDRPSGIPDRFSGSISGNTASLTITGAQAEDEAHYYCNSRDSSGNHVVFGGGTKLTVL
notes: Same variable regions as Antibody 13

Kd [1]: < 0.001 nM
koff [1]: < 1e-07 s⁻¹
kon [1]: 127000 M⁻¹ s⁻¹
Kd (human Protein S [2]): 0.0542 nM
koff (human Protein S [2]): 8.86e-06 s⁻¹
kon (human Protein S [2]): 164000 M⁻¹ s⁻¹
Kd (human Protein S [3]): 2.24 nM
koff (human Protein S [3]): 0.000569 s⁻¹
kon (human Protein S [3]): 253000 M⁻¹ s⁻¹
B5: Antibody 3 (antibody, V domains shown)
VH: EVQLVESGGGLVQPGRSLRLSCAASGFTFDDYAMHWVRQAPGKGLEWVSGITWNSGNIGYADSVKGRFTISRDNAKNSLYLHMNSLRIEDTAFYYCAKGRAVSDTFDIWGQGTMVTVSS
VL: SYELNQPPSVSVSPGQTASITCSGDKLGDKYASWYQQKPGQSPVVAIYQNSKRPSGIPERFSASNSGNTATLTISGTQALDEADYYCQAWDSSTWVFGGGTKLTVL
notes: Same variable regions as Antibody 15

Kd [1]: 16.9 nM
koff [1]: 0.00232 s⁻¹
kon [1]: 137000 M⁻¹ s⁻¹
Kd (human Protein S [2]): 8.18 nM
koff (human Protein S [2]): 0.00141 s⁻¹
kon (human Protein S [2]): 172000 M⁻¹ s⁻¹
Kd (human Protein S [3]): 20 nM
koff (human Protein S [3]): 0.005 s⁻¹
kon (human Protein S [3]): 252000 M⁻¹ s⁻¹
B6: Antibody 7 (antibody, V domains shown)
VH: QLQLQESGPGLVKPSETLSLTCTVSGGSISSSSYYWGWIRQPPGKGLEWIGNIYYSGNTYYNPSLKSRVTISVDTSKNQFSLKLSSMTAADTAVYYCARCSGYGYSSGRSYFDYWGQETLVTVSS
VL: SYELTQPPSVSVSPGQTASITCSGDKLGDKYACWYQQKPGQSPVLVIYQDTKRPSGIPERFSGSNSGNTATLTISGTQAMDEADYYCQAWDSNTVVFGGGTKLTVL
notes: Same variable regions as Antibody 19

Kd [1]: 34.3 nM
koff [1]: 0.00233 s⁻¹
kon [1]: 67900 M⁻¹ s⁻¹
Kd (human Protein S [2]): 0.574 nM
koff (human Protein S [2]): 0.000159 s⁻¹
kon (human Protein S [2]): 277000 M⁻¹ s⁻¹
B7: Antibody 27 (antibody, V domains shown)
VH: QVQLQQSGPGLVKPSQTLSLTCAISGDSVSNNNAAWNWIRQSPSRGLEWLGGTYYRSKWYNDYAVSVKSRIIINPVTSKNQFSLQLNSVTPEDTAVYYCARGSSWYRFFDYWGQGTLVTVSS
VL: EIVLTQSPGTLSLSPGERATLSCRASQSVGSSYLAWYQQKPGQAPRLLISGASGRATGIPDRFSGSGSGTDFTLTISRLEPEDFTVYYCQQYGSSPYTFGQGTKLEIK
notes: Same variable regions as Antibody 33

Kd [1]: < 0.001 nM
koff [1]: < 1e-07 s⁻¹
kon [1]: 154000 M⁻¹ s⁻¹
Kd (human Protein S [2]): < 0.001 nM
koff (human Protein S [2]): < 1e-07 s⁻¹
kon (human Protein S [2]): 207000 M⁻¹ s⁻¹
Kd (human Protein S [3]): 1.63 nM
koff (human Protein S [3]): 0.00056 s⁻¹
kon (human Protein S [3]): 346000 M⁻¹ s⁻¹
B8: Antibody 2 (antibody, V domains shown)
VH: QVQLQESGPGLVKPSQTLSLTCTVSGGSITSDGYHWSWIRQYPGKGLDWIGYIYYTGNTYYNPSLKSRVTISVGTSQNQFSLKLISVTAADTAVYYCARRLSTGPYFDYWGQGTLVTVSS
VL: QSALTQPASVSGSPGQSITISCTGTSSDVGGYEFVSWYQHHPGKAPKLMIYDVSSRPSGVSNRFSGSKSGNTASLTISGLQAEDEADYYCSSYTRSSTVVFGGGARLTVL
notes: Same variable regions as Antibody 14

Kd [1]: 11.3 nM
koff [1]: 0.00291 s⁻¹
kon [1]: 258000 M⁻¹ s⁻¹
Kd (human Protein S [2]): 7.49 nM
koff (human Protein S [2]): 0.00232 s⁻¹
kon (human Protein S [2]): 309000 M⁻¹ s⁻¹
Kd (human Protein S [3]): 14.4 nM
koff (human Protein S [3]): 0.00947 s⁻¹
kon (human Protein S [3]): 657000 M⁻¹ s⁻¹
B9: Antibody 12 (antibody, V domains shown)
VH: QVQLQESGPGLVKPSETLSLTCGVSGGSISSTNWWSWVRQPPGKGLEWIGEIYQTGSTDYDPSLKSRVTISIDKSKNQFSLKLYSVTAADTAVYYCARRFGELDYWGQGTLVTVSS
VL: EIVMTQSPATLSVSPGERATLSCRASQSVTSNLAWYQQKPGQAPRLLIYDASTRATGIPARFSGSGSGTEFTLTISSLQSEDFAIYYCQQYNNWPTFGQGTRLEIK
notes: Same variable regions as Antibody 24

Kd [1]: 15.3 nM
koff [1]: 0.00308 s⁻¹
kon [1]: 201000 M⁻¹ s⁻¹
Kd (human Protein S [2]): 2.62 nM
koff (human Protein S [2]): 0.000708 s⁻¹
kon (human Protein S [2]): 271000 M⁻¹ s⁻¹
Kd (human Protein S [3]): 4.13 nM
koff (human Protein S [3]): 0.00165 s⁻¹
kon (human Protein S [3]): 399000 M⁻¹ s⁻¹
B10: Antibody 4 (antibody, V domains shown)
VH: QVQLVESGGGVVQPGRSLRLSCAASGFTFSTYGFHWVRQPPGKGLEWVAVIYYDGINKYYADSVKGRFTISRDNSKNTLFLQMNSLRAEDTAVYYCAESDLDYWGQGTLVTVSS
VL: EIVLTQSPATLSLSPGERATLSCRASQSVSIYLAWYQQKPGQAPRLLIYDASNRATGIPARFSGSGSGTDFTLTISSLEPEDFAVYYCQQRSNWPLTFGPGTKVDIK
notes: Same variable regions as Antibody 16

Kd [1]: 2.81 nM
koff [1]: 0.000394 s⁻¹
kon [1]: 140000 M⁻¹ s⁻¹
Kd (human Protein S [2]): 1.47 nM
koff (human Protein S [2]): 0.000332 s⁻¹
kon (human Protein S [2]): 226000 M⁻¹ s⁻¹
Kd (human Protein S [3]): 5.79 nM
koff (human Protein S [3]): 0.0016 s⁻¹
kon (human Protein S [3]): 280000 M⁻¹ s⁻¹
B11: Antibody 6 (antibody, V domains shown)
VH: QVQLQESGPGLVKPSETLSLTCTVSGGSISNYYWNWIRQPPGKGLEWIGYIYYIGITDYNPSLKSRVTISVDTSKNQFSLKVTSVTAADTAVYYCAALSGDHAFDIWGQGTLVTVSS
VL: not shown
notes: Same variable regions as Antibody 18

Kd [1]: 0.266 nM
koff [1]: 4.42e-05 s⁻¹
kon [1]: 166000 M⁻¹ s⁻¹
Kd (human Protein S [2]): 0.533 nM
koff (human Protein S [2]): 0.000162 s⁻¹
kon (human Protein S [2]): 304000 M⁻¹ s⁻¹
Kd (human Protein S [3]): 15.9 nM
koff (human Protein S [3]): 0.00336 s⁻¹
kon (human Protein S [3]): 212000 M⁻¹ s⁻¹
B12: Antibody 9 (antibody, V domains shown)
VH: QVQLVQSGAEVKKPGSSVKVSCKASGDTFSNHAINWVRQAPGQGLEWMGGYIPIFGTTNSAQKFRGRVTITADKSTNTAYMALSSLRSEDTAVYYCARGGLAGSHYKNYYYDGMDVWGQGTTVTVSS
VL: not shown
notes: Same variable regions as Antibody 21
